The results in this text go back to US20140154243A1 (Amgen, published 2014).

Assay [1] addresses T1, human hepatocyte growth factor (HGF) (human, UniProt P14210 32-728). The assay is described as follows: cell-based or functional assay.
Assay [2] addresses T1, human hepatocyte growth factor (HGF). The assay is described as follows: neutralization ELISA (left table): inhibition of the binding of soluble Met (2 nM) to plate-coated HGF, detected with biotinylated anti-cMetR antibody and Eu-streptavidin; column head 'IC50 IP (nM)'. As to the method: (§1) A neutralization ELISA assay was developed to assess whether the antibodies discussed in Example 6 could interrupt Met-HGF binding. Delphia 96-well plates (Cat#: AAAND-0001, Wallac Inc., Gaithersburg, Md.) were coated with HGF by adding 100 μl of HGF at 6.25 μg/ml per well. The plates were incubated at 37° C. for 1 hour or at 4° C. overnight. The plates were then blocked with 5% BSA (Cat#50-61-00, KPL, Gaithersburg, Md.) in PBS containing 0.1% Tween 20 for 1 hour at room temperature with shaking.
(§2) Test samples were prepared by separately mixing soluble Met (2 nM, 0.256 μg/ml) with different concentrations of a particular antibody to HGF being tested. The concentrations tested were: 667 nM, 223 nM, 74.1 nM, 24.7 nM, 8.2 nM, 2.7 nM, 0.91 nM, 0.30 nM, 0.10 nM, and 0.034 nM. A volume of 100 μl of a test sample was added to each well of the plates. The plates were then incubated at 4° C. overnight and then washed 4 times with PBS containing 0.1% Tween 20. Next, 100 μl per well of Biotinylated anti-cMetR antibody (Cat#: BAF358, R&D Systems Inc., Minneapolis, Minn.) at 2 μg/ml, was added. […] The plates were then incubated for 2 hours with shaking, and were washed 4 times with PBS containing 0.1% Tween 20. Eu-streptavidin (1:1000 dilution in Assay buffer) (Cat#1244-360, Wallac Inc., Gaithersburg, Md.) was added and the plates were shaken at room temperature for 1 hour. The plates were then washed 4 times with PBS containing 0.1% Tween 20. Next, 100 μl of enhancement buffer (Wallac Inc., Cat#: 1244-105, Gaithersburg, Md.) was added. After at least for 5 minutes, the plates were read using Europium method on Victor 2 (1420 Multilabel Counter, Wallac Inc., Gaithersburg, Md.).
(§3) Percent inhibition of Met binding to HGF (i.e. neutralization) was calculated and IC₅₀ values were determined using the 4 parameter fit equation Excelfit, Version 2.0.6, (Microsoft Inc, Seattle, Wash.). In the presence of the antibodies to HGF discussed in Examples 6, Met binding to HGF was neutralized.

Assay [3] has as its target T2, mouse HGF (mouse, UniProt Q08048 33-728).
T2 construct: also called recombinant mouse HGF; mHGF
The experiment in a line: FACS bead assay: antibody incubated with the avidin fusion of mouse HGF, captured on biotin-coated beads; FITC anti-avidin (x) against PE goat anti-human F(ab')2 (y). As to the method: After incubation, the fusion proteins in each sample were separately captured using biotin-coated beads (Spherotech Inc., Libertyville, Ill., Cat # TP-60-5). The resulting bead-protein complexes were labeled by adding FITC labeled anti-avidin antibody (Vector Lab, Burlingame, Calif., Cat. # SP-2040). The presence of antibodies to HGF was determined by adding phycoerythrin (PE) labeled goat anti-human F(ab′)2 antibody (Southern Biotech Associates, Inc, Birmingham, Ala., Cat #2043-09).
Those samples were then subjected to Fluorescence Activated Cell Sorter (FACS) analysis. Bead complexes labeled by FITC (which indicated the presence of avidin) and/or PE (which indicated the presence of antibody to HGF) were detected on a Becton Dickinson Bioscience FACScan (BD, Franklin Lakes, N.J.).

Assay [4] addresses T1, human hepatocyte growth factor (HGF). The assay is described as follows: BIAcore 3000, kinetic method: antibody captured on immobilized Protein G, human HGF (0-100 nM) injected. An excerpt:
The running buffer for those analyses was PBS with 0.005% P20 surfactant (BIAcore, Inc. Piscataway, N.J.). Recombinant Protein G (Pierce, Rockford, Ill.) was immobilized to a research grade CM5 sensor chip (Biacore, Inc. Piscataway, N.J.) via primary amine groups using the Amine Coupling Kit (Biacore, Inc. Piscataway, N.J.), according to the manufacturer's instructions.
In six separate samples, about 200 resonance units (RU) of each of the six antibodies to HGF was separately attached to immobilized Protein G following the manufacturer's instructions. Samples comprising various concentrations (0-100 nM) of human HGF were injected over the bound antibody surface at a flow rate of 50 μl/min for 3 minutes. Antibody binding kinetic parameters including kₐ (association rate constant), kd (dissociation rate constant), and KD (dissociation equilibrium constant) were determined using the BIA evaluation 3.1 computer program (BIAcore, Inc. Piscataway, N.J.). Lower dissociation equilibrium constants indicate greater affinity of the antibody for HGF.
In general terms: In SPR one partner is held on a chip, and binding of the other changes the refractive index at the surface.

The target is the same in assay [5]. The assay is described as follows: neutralization ELISA (right table): inhibition of the binding of soluble Met (2 nM) to plate-coated HGF, detected with biotinylated anti-cMetR antibody and Eu-streptavidin; column head 'IC50 IP (nM)'. As to the method: as §1, §2, §3
For assay [6] the target is unchanged. The experiment in a line: BIAcore 3000, equilibrium/solution method: antibody (0.01-50 nM) incubated with human HGF (0.05 nM and 1 nM), free HGF measured on a chip carrying the same antibody. As to the method: That method was performed with a BIAcore®3000 (Biacore, Inc., Piscataway, N.J.) using PBS with 0.005% P20 surfactant (BIAcore, Inc. Piscataway, N.J.) as running buffer. The four antibodies to HGF were separately immobilized to research grade CM5 sensor chips (Biacore, Inc. Piscataway, N.J.) via primary amine groups using an Amine Coupling Kit (Biacore, Inc. Piscataway, N.J.) following the manufacturer's instructions.
In separate assays, each of the four antibodies to HGF, over a range of concentrations (from 0.01 nM to 50 nM) was separately incubated with each of two different concentrations (0.05 nM and 1 nM) of human HGF in PBS with 0.005% P-20 and 0.1 mg/mL BSA at room temperature for at least six hours. Each of those samples was then injected over a surface of a CM5 sensor chip onto which the same antibody to HGF had been immobilized. The binding signal obtained was proportional to the free HGF in solution. The dissociation equilibrium constant (KD) was obtained from nonlinear regression analysis of the competition curves using a dual-curve one-site homogeneous binding model (KinExA software, Sapidyne Instruments Inc., Boise Id.).

The target of assay [7] is T2, mouse HGF. The assay is described as follows: Western blot, non-reducing and reducing SDS-PAGE. As to the method:
Human HGF and mouse HGF were run on separate lanes of SDS PAGE gels. Human HGF and mouse HGF were each separately run at 100 ng/lane and at 10 ng/lane. Some gels were run under non-reducing conditions and other separate gels were run under reducing conditions using beta-mercaptoethanol. The human HGF and mouse HGF in the SDS PAGE gels were transferred to nitrocellulose membranes. Those membranes were separately incubated with one of the ten antibodies to HGF described in Example 6. Each of the ten antibodies to HGF was separately incubated with nitrocellulose membranes from gels containing human HGF and mouse HGF under reducing and with nitrocellulose membranes from gels containing human HGF and mouse HGF under non-reducing conditions. The membranes were then incubated with a goat anti-human IgG antibody linked to HRP (Pierce, Rockford, Ill., Cat. #31412). Signal from that goat anti-human IgG antibody linked to HRP was detected by […] (ECL™; Amersham Pharmacia Biotech, Piscataway, N.J., Cat. # RPN₂₁₀₆) following the manufacturer's instructions.
(A western blot detects proteins with antibodies after separation by electrophoresis.)

T2 sequence (Q08048 33-728 limits assumed): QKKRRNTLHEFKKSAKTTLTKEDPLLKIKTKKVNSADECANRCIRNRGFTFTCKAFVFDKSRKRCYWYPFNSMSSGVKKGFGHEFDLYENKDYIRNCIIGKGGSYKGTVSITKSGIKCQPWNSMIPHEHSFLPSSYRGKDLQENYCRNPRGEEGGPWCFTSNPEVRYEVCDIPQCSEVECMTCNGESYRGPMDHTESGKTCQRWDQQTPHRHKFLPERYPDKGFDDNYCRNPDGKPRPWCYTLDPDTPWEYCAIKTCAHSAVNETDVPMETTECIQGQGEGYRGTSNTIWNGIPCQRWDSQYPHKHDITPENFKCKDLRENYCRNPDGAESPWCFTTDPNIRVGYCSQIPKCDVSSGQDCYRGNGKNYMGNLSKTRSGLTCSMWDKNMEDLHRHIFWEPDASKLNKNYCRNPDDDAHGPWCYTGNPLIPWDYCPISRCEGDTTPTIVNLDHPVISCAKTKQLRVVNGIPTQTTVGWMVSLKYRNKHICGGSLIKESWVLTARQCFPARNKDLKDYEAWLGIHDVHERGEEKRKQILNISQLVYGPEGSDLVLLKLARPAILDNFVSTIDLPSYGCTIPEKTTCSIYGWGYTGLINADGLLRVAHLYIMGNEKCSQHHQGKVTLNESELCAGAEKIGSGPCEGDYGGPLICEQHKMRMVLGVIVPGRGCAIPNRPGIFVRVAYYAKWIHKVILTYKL
T1 sequence (P14210 32-728 limits assumed): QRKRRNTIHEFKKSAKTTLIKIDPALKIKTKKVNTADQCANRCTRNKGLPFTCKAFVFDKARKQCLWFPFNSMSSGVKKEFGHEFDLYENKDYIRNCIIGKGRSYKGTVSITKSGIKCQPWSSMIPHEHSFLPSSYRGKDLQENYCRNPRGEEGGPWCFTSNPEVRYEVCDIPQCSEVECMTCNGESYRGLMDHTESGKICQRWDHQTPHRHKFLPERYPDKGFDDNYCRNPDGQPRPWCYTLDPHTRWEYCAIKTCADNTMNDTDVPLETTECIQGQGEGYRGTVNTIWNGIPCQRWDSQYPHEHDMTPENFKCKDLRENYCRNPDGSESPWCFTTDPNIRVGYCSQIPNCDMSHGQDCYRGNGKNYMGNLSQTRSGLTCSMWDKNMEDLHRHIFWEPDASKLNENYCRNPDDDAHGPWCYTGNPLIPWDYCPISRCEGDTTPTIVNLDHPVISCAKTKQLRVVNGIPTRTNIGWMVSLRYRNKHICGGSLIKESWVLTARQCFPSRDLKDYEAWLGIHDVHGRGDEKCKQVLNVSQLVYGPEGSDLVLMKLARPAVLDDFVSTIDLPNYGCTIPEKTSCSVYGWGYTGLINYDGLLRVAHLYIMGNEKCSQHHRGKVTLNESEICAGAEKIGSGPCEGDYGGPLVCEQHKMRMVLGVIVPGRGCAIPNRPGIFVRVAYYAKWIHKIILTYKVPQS

B1: antibody 3.10.1 (antibody, human IgG1, kappa, V domains shown)
VH: QVQLQQWGAGLLKPSETLSLTCAVYGGSFSTYYWSWIRQPPGKGLEWIGEINHSGSTNYNPSLKSRVTISVDTSKNQFSLKLSSVTAADTAVYYCARGGYDFWSGYYDYWGQGTLVTVSS
VL: not shown
notes: also called antibody to HGF ultimately derived from hybridoma 3.10.1
As to B1, in assay [1], the “IC50, inhibition of growth/survival of U-87 MG cells” value was below 100 nM. The IC50 in assay [2] came out at 0.9 nM. The binding result with mouse HGF [3] is recorded as “no binding”. In assay [4], this molecule showed a Kd of around 0.47 nM, a koff of 3e-05 s⁻¹ and a kon of 65000 M⁻¹ s⁻¹. In addition, the IC50 in assay [5] was found to be 0.37 nM.

B2: antibody 1.29.1 (antibody, human IgG2, kappa, V domains shown)
VH: QVQLVESGGGVVQPGRSLRLSCAASGFTFSSYGMHWVRQAPGKGLEWVAVIWYDGSDKYYADSVKGRFTISRDNSKNTLYLQMNSLRAEDTAVYYCAREDYGEGFDYWGQGTLVTVSS
VL: not shown
notes: also called antibody to HGF ultimately derived from hybridoma 1.29.1
On to B2, for which, in assay [1], the “IC50, inhibition of growth/survival of U-87 MG cells” value was below 100 nM. The molecule also yielded an IC50 in assay [2] of 3.2 nM. This molecule came in with a Kd in assay [6] of 0.034 nM. In assay [4], the Kd was around 0.79 nM, the dissociation rate constant (koff) is 4.8e-05 s⁻¹ and the on-rate (kon) was determined as 62000 M⁻¹ s⁻¹. This molecule displayed a concentration for half-maximal inhibition (IC50) in assay [5] of 1.93 nM. Further, the binding result in the assay with mouse HGF [7] is “no binding (tested: 100 ng and 10 ng per lane)”.

B3: antibody 1.61.3 (antibody, human IgG2, kappa, V domains shown)
VH: QVQLQESGPGLVKPSQTLSLTCTVSGGSISSDGYYWSWIRQHPGKGLEWIGYIYYSGSTYYNPSLKSRVTISVDTSKNQFSLKLSSVTAADTAVYYCARSHLHYYDSSGYYYGGAFDIWGQGTMVTVSS
VL: DIQMTQSPSSLSASVGDRVTITCQASQDISNYLNWYQQKPGTAPKLLIYGASDLETGVPSRFSGSGSGTDFTFAISSLQPEDIATYYCQQYDNLPYNFGQGTKLEIKR
notes: also called antibody to HGF ultimately derived from hybridoma 1.61.3
Turning to B3, the “IC50, inhibition of growth/survival of U-87 MG cells” value in assay [1] was below 100 nM. For the same molecule, the IC50 in assay [5] came to 2.59 nM. The binding result with mouse HGF [7] was “no binding (tested: 100 ng and 10 ng per lane)”.

B4: antibody 1.75.1 (antibody, human IgG2, kappa, V domains shown)
VH: QVQLQESGPGLVKPSQTLSLTCTVSGGSISSGGYYWSWIRQHPGKGLEWIGYIYYSGSTYYNPSLKSRVTISVDTSKNQFSLKVSSVTAADTAVYYCARDPLWFGEFDYYGMDVWGQGTTVTVSS
VL: DIQMTQSPSSLSASVGDRVTITCRASQGIRNDLGWFQQKPGKAPKRLIYAASSLQSGVPSRFSGSGSGTEFTLTISSLQPEDFATYYCLQHDSYPLTFGGGTKVEIKR
notes: also called antibody to HGF ultimately derived from hybridoma 1.75.1
Turning to B4, the “IC50, inhibition of growth/survival of U-87 MG cells” value in assay [1] is below 100 nM. In assay [2], this molecule gave an IC50 of 1 nM. In assay [4], this molecule displayed a Kd of around 0.78 nM, a koff of 2.8e-05 s⁻¹ and a kon of 36000 M⁻¹ s⁻¹. In addition, in assay [5], the half-maximal inhibitory concentration (IC50) came to 0.72 nM. Also, the binding result in the assay with mouse HGF [7] is “no binding (tested: 100 ng and 10 ng per lane)”.

B5: antibody 2.40.1 (antibody, human IgG2, kappa, V domains shown)
VH: QVQLQESGPGLVKPSQTLSLTCTVSGGSISSGGYYWSWIRQHPGKGLEWIGNIYYSGITYYNPSLKSRVTMSVDTSKNQFSLKLSSVTAADTAVYYCARDPLYGDYGFDPWGQGTLVTVSS
VL: DIQMTQSPSSLSASVGDRVTITCRASQGIRNDLGWYQQKPGKAPKRLIYVASSLQSGVPSRFSGSGSGTEFTLTISSLQPEDFATYYCLQHNSYPLTFGGGTKVEIKR
notes: also called antibody to HGF ultimately derived from hybridoma 2.40.1
Consider B5, for which, in assay [1], the “IC50, inhibition of growth/survival of U-87 MG cells” value is below 100 nM. The molecule further came in with an IC50 in assay [2] of 1 nM. For the same molecule, in the assay with mouse HGF [7], the binding result was “no binding (tested: 100 ng and 10 ng per lane)”.

B6: antibody 1.60.1 (antibody, human IgG2, kappa, V domains shown)
VH: QVQLVQSGAEVKKPGASVKVSCKASGYTFTGYYINWVRQAPGQGLEWMGWINPNSGGTNYAQKFQGRVTMTRDTSITTAYMELSRLRADDTAVYYCARELELRYYGMDVWGQGTTVTVSS
VL: DIQMTQSPSSLSVSVGDRVTITCRASQGISSYLAWYQQKPGKVPKLLIYVASTLQSGVPSRFSGSGSGTDFTLTISSLQPEDVATYYCQNYNSDPLTFGGGTKVEIKR
notes: also called antibody to HGF ultimately derived from hybridoma 1.60.1
For B6, in assay [1], the “IC50, inhibition of growth/survival of U-87 MG cells” value was below 100 nM. Besides, the binding result in the assay with mouse HGF [7] is “no binding (tested: 100 ng and 10 ng per lane)”.

B7: antibody 1.24.1 (antibody, human IgG2, kappa, V domains shown)
VH: QVQLVESGGGLVKPGGSLRLSCAASGFTFSDYYMSWIRQAPGKGLEWVSYISSSGSTIYYADSVKGRFTISRDNAKNSLYLQMNSLRAEDTAVYYCARDEYNSGWYVLFDYWGQGTLVTVSS
VL: DIQMTQSPSSVSASVGDRVTITCRASQGISSWLAWYQQKPGKAPNLLIYEASSLQSGVPSRFGGSGSGTDFTLTISSLQPEDFATYYCQQANGFPWTFGQGTKVEIKR
notes: also called antibody to HGF ultimately derived from hybridoma 1.24.1
For the molecule B7, the “IC50, inhibition of growth/survival of U-87 MG cells” value in assay [1] is below 100 nM. The IC50 was 2.6 nM in assay [2] and 9.36 nM in assay [5]. The binding result with mouse HGF [7] was “no binding (tested: 100 ng and 10 ng per lane)”.

Usually IC50 stands for the concentration at which inhibition is half-maximal. Read a high IC50 as lower potency. Usually Kd stands for a measure of binding affinity in units of concentration. In general, koff refers to a measure of how fast the partners let go of each other. Read a low koff as slow dissociation. As usually defined, the kon is a measure of how fast the partners come together. Read a low kon as slow association.
